Test results reported in paper PMC10773898, “Evidence of DISC1 as an arsenic binding protein and implications regarding its role as a translational activator” (Frontiers in Molecular Biosciences, 2023).
Numbering of substitutions follows the chain as printed. Names and notes keep the numbering of the source.

B1: DISC1 C-terminal construct (598-854), WT (domain or fragment, human, UniProt Q9NRI5-1 598-854, looked up)
chain: GNHFFTAKDLTEEIRSLTSEREGLEGLLSKLLVLSSRNVKKLGSVKEDYNRLRREVEHQETAYETSVKENTMKYMETLKNKLCSCKCPLLGKVWEADLEACRLLIQSLQLQEARGSLSVEDERQMDDLEGAAPPIPPRLHSEDKRKTPLKVLEEFKTHLIPSLHCAGGEQKEESYILSAELGEKCEDIGKKLLYLEDQLHTAIHSHDEDLIQSLRRELQMVKETLQAMILQLQPAKEAGEREAAASCMTAGVHEAQA
notes: Disrupted-in-schizophrenia-1 (DISC1), human, residues 598-854, with W602F and W752F so that W691 is the single tryptophan; In pET28b(+) as His-tag fusion; also called DISC1 598-854; C-terminal WT construct; source: E. coli BL21 (DE3), purified (Ni-NTA, SEC)
B2: DISC1 598-854 C680S/C682S/C684S/C698S/C762S/C782S/C844S (domain or fragment, human, UniProt Q9NRI5-1 598-854, looked up)
chain: B1 chain with C83S, C85S, C87S, C101S, C165S, C185S, C247S
notes: DISC1, human, residues 598-854, all cysteines mutated to serine; also called C680S/C6802S/C684S*; C680S/C684S/C682S*; source: E. coli BL21 (DE3), purified (Ni-NTA, SEC)
B3: DISC1 598-854 (C698S/C762S/C782S/C844S) (domain or fragment, human, UniProt Q9NRI5-1 598-854, looked up)
chain: B1 chain with C101S, C165S, C185S, C247S
notes: DISC1, human, residues 598-854; also called WT*; pseudo-WT variant; source: E. coli BL21 (DE3), purified (Ni-NTA, SEC)
B4: DISC1 598-854 C680S/C698S/C762S/C782S/C844S (domain or fragment, human, UniProt Q9NRI5-1 598-854, looked up)
chain: B1 chain with C83S, C101S, C165S, C185S, C247S
notes: DISC1, human, residues 598-854; source: E. coli BL21 (DE3), purified (Ni-NTA, SEC)
B5: DISC1 598-854 C682S/C698S/C762S/C782S/C844S (domain or fragment, human, UniProt Q9NRI5-1 598-854, looked up)
chain: B1 chain with C85S, C101S, C165S, C185S, C247S
notes: as for B4
B6: DISC1 598-854 C684S/C698S/C762S/C782S/C844S (domain or fragment, human, UniProt Q9NRI5-1 598-854, looked up)
chain: B1 chain with C87S, C101S, C165S, C185S, C247S
notes: as for B4
B7: DISC1 598-854 C680S/C682S/C698S/C762S/C782S/C844S (domain or fragment, human, UniProt Q9NRI5-1 598-854, looked up)
chain: B1 chain with C83S, C85S, C101S, C165S, C185S, C247S
notes: as for B4
B8: DISC1 598-854 C680S/C684S/C698S/C762S/C782S/C844S (domain or fragment, human, UniProt Q9NRI5-1 598-854, looked up)
chain: B1 chain with C83S, C87S, C101S, C165S, C185S, C247S
notes: as for B4
B9: DISC1 598-854 C682S/C684S/C698S/C762S/C782S/C844S (domain or fragment, human, UniProt Q9NRI5-1 598-854, looked up)
chain: B1 chain with C85S, C87S, C101S, C165S, C185S, C247S
notes: as for B4

Target: the molecule itself
Assay: SEC; HiLoad 26/600 Superdex 200 pg; 50 mM Tris-HCl, 10 mM NaCl, pH 8.0; self-association of the purified construct

Stoichiometry N, 4:
B1

Binding result, binds:
B2, B3, B4, B5, B6, B7, B8, B9
